In PMC3772012, “Enzyme Immobilisation on Amino-Functionalised Multi-Walled Carbon Nanotubes: Structural and Biocatalytic Characterisation” (PLoS ONE, 2013):

Substrate: CCCCCCCCCCCCCCCC(=O)Oc1ccc([N+](=O)[O-])cc1
Assay: purified protein
Type: biochemical, Thermomyces lanuginosus
Conditions: free enzyme, 50 mM Tris pH 9.0, 60 °C, 10-60 mM substrate, Triton X-100 and gum acacia in assay buffer

B1: Thermomyces lanuginosus lipase (Thermomyces lanuginosus) (protein)
chain: EVSQDLFNQFNLFAQYSAAAYCGKNNDAPAGTNITCTGNACPEVEKADATFLYSFEDSGVGDVTGFLALDNTNKLIVLSFRGSRSIENWIGNLNFDLKEINDICSGCRGHDGFTSSWRSVADTLRQKVEDAVREHPDYRVVFTGHSLGGALATVAGADLRGNGYDIDVFSYGAPRVGNRAFAEFLTVQTGGTLYRITHTNDIVPRLPPREFGYSHSSPEYWIKSGTLVPVTRNDIVKIEGIDATGGNNQPNIPDIPAHLWYFGLIGTCL
notes: free enzyme
- Km: 3.1 mM
- Vmax: 20.1 µmol/min/mg
